Patent publication EP4803885A1, “PROBE AND USE THEREOF IN IMAGING AND THERAPY” (priority 2023, dated 2025)

Assay: Near-infrared imaging of DIII-EphB4-EBD after conjugation with dye
Type: physicochemical
Settings: after conjugation with near-infrared fluorescent dye, different concentrations, compared with Dye@DIII
Excerpt: After induction, the supernatant of the BMMY induced expression culture was collected and sequentially filtered through 0.8 µm, 0.45 µm, and 0.22 µm membranes. The filtrate was then purified using an Albupure affinity column. The purified product was subjected to SDS-PAGE and near-infrared imaging for identification. As shown in Fig. 19 (left), the final eluate contained a highly purified product (indicated by the red dashed box).

B1: DIII-EphB4-EBD: fusion protein of albumin DIII and EphB4 ephrin-binding domain (SEQ ID NO: 14), tested after conjugation with near-infrared fluorescent dye (conjugate)
chain: VEEPQNLIKQNCELFEQLGEYKFQNALLVRYTKKVPQVSTPTLVEVSRNLGKVGSKCCKHPEAKRMPCAEDYLSVVLNQLCVLHEKTPVSDRVTKCCTESLVNRRPCFSALEVDETYVPKEFNAETFTFHADICTLSEKERQIKKQTALVELVKHKPKATKEQLKAVMDDFFVEKCCKADDKETCFAEEGKKLVSQLGLGGGGSGGGGSEETLLNTKLETADLKWVTFPQVDGQWEELSGLDEEQHSVRTYEVCDVQRAPGQAHWLRTGWVPRRGAVHVYATLRFTMLECLSLPRAGRSCKETFTVFYYESDADTATALTPAWMENPYIKVDTVAAEHLTRKRPGAEATGKVNVKTLRLGPLSKAGFYLAFQDQGACMALLSLHLFYKKCAQLTV
modifications: near-infrared fluorescent dye conjugated
For B1, the fluorescence characteristics was “fluorescence characteristics consistent with those of the original DIII”.
